Laboratory results from paper PMC10273338.

Molecular target: T1, HspB8, Q9UJY1
T1 chain: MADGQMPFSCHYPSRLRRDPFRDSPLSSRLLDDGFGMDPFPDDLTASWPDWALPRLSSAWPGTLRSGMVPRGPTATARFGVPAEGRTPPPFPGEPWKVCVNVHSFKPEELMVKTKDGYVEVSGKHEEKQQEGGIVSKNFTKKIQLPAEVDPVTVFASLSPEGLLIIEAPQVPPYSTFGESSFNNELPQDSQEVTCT
Assay: SPR; BIACORE X; HspB8 amine-coupled to a CM5 chip (7400 RU); running buffer 10 mM HEPES pH 7.4, 150 mM NaCl, 3 mM EDTA, 0.005% P20; 10 uL/min; Langmuir 1:1 fit
Conditions: remark: other sources report otherwise

B1: HspB8, Q9UJY1 1-196 (natural protein)
chain: MADGQMPFSCHYPSRLRRDPFRDSPLSSRLLDDGFGMDPFPDDLTASWPDWALPRLSSAWPGTLRSGMVPRGPTATARFGVPAEGRTPPPFPGEPWKVCVNVHSFKPEELMVKTKDGYVEVSGKHEEKQQEGGIVSKNFTKKIQLPAEVDPVTVFASLSPEGLLIIEAPQVPPYSTFGESSFNNELPQDSQEVTCT
Ka: 5.2e+06 M⁻¹
Kd: 190 nM
koff: 0.00048 s⁻¹
kon: 2500 M⁻¹ s⁻¹
